The results in this text go back to patent publication US20250236667A1, “ANTIBODIES TO MUTANT CALRETICULIN AND USES THEREOF” (CENTRAL ADELAIDE LOCAL HEALTH NETWORK INC, priority 2021, published 2025).

The chains are these.
T1: thrombopoietin receptor (TpoR) (UniProt P40238 26-635, limits assumed)
T1 construct: whole, on cells; It was immunoprecipitated with anti-FLAG beads, so the expressed TpoR evidently carries a FLAG tag; The construct and the position of the tag are not described; also called TPO receptor
T1 sequence (looked up): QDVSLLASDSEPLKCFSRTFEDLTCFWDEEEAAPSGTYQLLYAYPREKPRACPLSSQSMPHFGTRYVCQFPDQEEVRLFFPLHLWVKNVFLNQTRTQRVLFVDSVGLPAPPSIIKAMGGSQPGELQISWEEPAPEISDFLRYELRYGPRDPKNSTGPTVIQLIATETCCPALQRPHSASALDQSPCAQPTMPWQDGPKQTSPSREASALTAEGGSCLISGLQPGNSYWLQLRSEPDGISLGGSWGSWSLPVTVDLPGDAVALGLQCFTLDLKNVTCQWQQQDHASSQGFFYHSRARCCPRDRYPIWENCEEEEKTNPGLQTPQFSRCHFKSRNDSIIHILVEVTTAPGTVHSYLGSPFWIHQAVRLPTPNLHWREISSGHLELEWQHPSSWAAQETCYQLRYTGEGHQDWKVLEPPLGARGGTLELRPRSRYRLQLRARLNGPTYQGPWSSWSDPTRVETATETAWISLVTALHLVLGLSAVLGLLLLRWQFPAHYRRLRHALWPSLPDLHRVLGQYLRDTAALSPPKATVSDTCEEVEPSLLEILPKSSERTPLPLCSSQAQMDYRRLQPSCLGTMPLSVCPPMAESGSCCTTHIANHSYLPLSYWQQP

T2: full-length 30 amino acid CALR mutant neoepitope peptide (peptide used for immunisation) (human)
T2 construct: also called full-length peptide
T2 peptide: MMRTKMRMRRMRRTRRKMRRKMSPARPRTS

B1: wild type calreticulin (CALR) (other, human, UniProt P27797 18-417, looked up)
chain: EPAVYFKEQFLDGDGWTSRWIESKHKSDFGKFVLSSGKFYGDEEKDKGLQTSQDARFYALSASFEPFSNKGQTLVVQFTVKHEQNIDCGGGYVKLFPNSLDQTDMHGDSEYNIMFGPDICGPGTKKVHVIFNYKGKNVLINKDIRCKDDEFTHLYTLIVRPDNTYEVKIDNSQVESGSLEDDWDFLPPKKIKDPDASKPEDWDERAKIDDPTDSKPEDWDKPEHIPDPDAKKPEDWDEEMDGEWEPPVIQNPEYKGEWKPRQIDNPDYKGTWIHPEIDNPEYSPDPSIYAYDNFGVLGLDLWQVKSGTIFDNFLITNDEAYAEEFGNETWGVTKAAEKQMKDKQDEEQRLKEEEEDKKRKEEEEAEDKEDDEDKDEDEEDEEDKEEDEEEDVPGQAKDEL
notes: also called CALR^WT; endogenous wild type CALR
B2: 2D2 rat monoclonal anti-mutant calreticulin antibody (antibody, V domains shown)
VH: QVQLQQSGAELTKPGSSVKISCKTSGYTFTTYDISWIKQRPGQALEWIGAIYPGGVTTGYNEKFKGKATLTVDKSSNTAFMQLSSLTPEDTAVYYCARWGHTTGTRFDHWGQGVMVTVSS
VL: DVLLTQTPVSLSVSLGDQASISCRSSQSLEYSDGYTYLEWYVQKPGQSPQLLIYEVSDRFSGVPDRFIGSGSGTDFTLKISRVEPEDLGVYYCFQATHDPPTFGGGTKLELK
notes: also called rat anti-human mutCALR 2D2

For experiment [1], the system named is healthy cord blood CD34+ cells. Nature of the experiment: cells. Format: cell-based, human. Conditions: Homo sapiens, 288 h, 12 days, read-out: inhibition of megakaryocyte formation. The procedure: Umbilical cord blood (UCB) was collected with written consent from full-term deliveries at the Women's Health Unit, Lyell McEwin Hospital (Adelaide, South Australia) or the Department of Obstetrics and Gynecology, Medical University of Graz (Austria) with institutional review board approval (IRB approval: 31-322 ex 18/19; HREC/20/WCHN/65). Samples were processed using a Ficoll-Paque (GE Healthcare) density gradient to isolate mononuclear cells (800×g, room temperature, 30 minutes, deceleration off), followed by red cell lysis (ammonium-chloride-potassium lysing buffer) to remove remaining red blood cells. CD34 enrichment was performed by magnetic cell separation using CD34 Microbead kit (Miltenyi Biotech). Alternatively, purified CD34+ cells from cord-blood were purchased from Lonza. CD34+ cells with a purity above 90% were either cryopreserved or directly cultured in serum-free stem cell retention media (StemSpan SFEMII, Stemcell Technologies, Vancouver, BC, Canada) supplemented with human recombinant SCF, TPO, FLT3, IL-6 (all 20 ng/mL), UM729 (1.75 uM) and StemReginin 1 (SR1, 300 nM). All cytokines and SRI were purchased from PeproTech (Rocky Hill, NJ, USA) whereas UM729 was purchased from Stemcell Technologies.
For megakaryocyte differentiation assays, CD34+ cells derived from cord blood or from patient peripheral blood mononuclear fractions were plated in Megacult (MegaCult™-C Collagen and Medium with Lipids) with added IL-3 and IL-6 (10 ng/ml) in the presence or absence of 50 ng/mL TPO. Cells were plated at an initial density of 1800 cells/well and cultured for 12 days at 37° C. and 5% CO2. […] Culture media was replenished every 3 days and cells were assessed for megakaryocyte differentiation on day 12 using anti-human CD41/61 PE-Cy7 (Clone A2A9/6) and CountBright beads (Thermo Fisher) to enumerate cell numbers. […] Cells were seeded at approximately 100 cells per well and were cultured in the presence of 20 μg/mL 4D7 or control IgG antibody and scored for colony and blast forming units at 12-14 days.

Experiment [2] concerns the target T1, thrombopoietin receptor (TpoR). In words: co-immunoprecipitation with anti-FLAG (MPL/TpoR), reducing Western blot. The protocol:
B. Similar experiment using TPO-independent TF-1 TpoR CALR^del61 cells at 4 and 8 hours. C. Similar experiment shown using TPO-independent TF-1 TpoR CALR^del52 cells, 8 hours. D. Flow cytometry analysis for cell cycle distribution of TF-1 TpoR CALR^del61 cells exposed to 20 μg/mL IgG or 4D7 for 48 hours. Cells were harvested and fixed and stained with propidium iodide and their DNA contents were analysed. Results from one representative experiment shown. Percentages of cells in Sub Go, G1. S and G2/M cycle indicated. E. Western blot showing specific co-immunoprecipitation of mutant CALR^del61 cells with TpoR anti-FLAG antibody under reducing conditions detected by total and mutant specific CALR antibodies. Arrowheads represent detected CALR protein. F. Western blot showing decreased TpoR phosphorylation in a TpoR immunoprecipitated after 8 hours of 20 μg/mL 4D7 treatment compared to PBS or IgG control in TF-1 TpoR CALR^del61.
(§1) For immunoblotting of total lysates, cells were lysed in NP40 buffer containing 150 mM NaCl, 50 mM Tris pH 7.6, 1% NP-40, supplemented with protease inhibitors (Complete, Roche) and phosphatase inhibitor cocktails, and boiled for 5 minutes after addition of sample buffer (60 mM Tris pH 6.8, 5% glycerol, 1% SDS, 2% β-mercaptoethanol, 0.02% bromophenol blue) before SDS gel electrophoresis followed by Western blotting (Tvorogov et al, 2010). […]
For orientation: Immunoblotting shows a protein as a band on a membrane.

Experiment [3] deals with T2, full-length 30 amino acid CALR mutant …. Nature of the experiment: ELISA on peptide. On the technique in general: In an ELISA, binding on a coated surface is turned into a signal by an enzyme label.
Experiment [4] has as its system TF-1 TpoR CALR^del61 cells. In words: Cell proliferation, trypan blue exclusion. The class given is cell-based, human. Conditions: 5 or 20 μg/mL; FIG. 8. The procedure:
[…] Cells were seeded in triplicate and each well was counted in triplicate every 24 hours for 5 days using trypan blue exclusion.

Experiment [5] relates to 30 amino acid peptide corresponding to the C-terminal mutant CALR neoepitope sequence. In words: ELISA binding to peptide. Also noted: species or system human. The procedure:
(§2) Rats were immunised with a CALR mutant peptide “MMRTKMRMRRMRRT RRKMRRKMSPARPRTS” coupled to KLH, this peptide sequence is unique to CALR mutant. Serum from the immunised rats was screened by enzyme linked immunoassay, to verify a strong titre to the peptide immunogen, prior to performing the hybridoma fusion. Immunised rat spleen cells were harvested and a spleen single cell suspension was combined with Sp2/O myeloma cell line. The cell mixture was treated with polyethylene glycol plus DMEM prior to been plated in 96 well flat bottom plates. The expanding hybridomas were screened initially by ELISA and the positive clones were further verified by western blot, for reactivity to the expressed CALR mutant protein before subcloning the hybridomas for antibody production.

For experiment [6], the target named is B1. In words: Western blot of TF-1 cell extracts (hybridoma clone screen). The procedure: B. Replicate Scatchard analyses of 4D7 using I¹²⁵-labelled and unlabelled 4D7 bound to full-length peptide (n=3). C. […] Cells were cultured in the presence or absence of 10 ng/ml TPO (n=3). D. Paracrine CALR-mutant protein is not sufficient to maintain TPO sensitive cells in culture. TF1 TpoR and TF-1 TpoR CALR^del61 cells were seeded at the same density and cultured in the presence or absence of TPO. Cells were separated by semi-permeable membrane in a horizontal co-culture system. Cell populations on either side of the membrane were counted every 24 hours over 4 days in triplicate and representative images were taken on day 4. Exogenous CALR secreted by TF-1 TpoR CALR^del61 was unable to assist growth of factor dependent TF-1 TopR cells (n=3). E. Histogram overlays showing fluorescence intensity of unstained and PE conjugated IgG2a isotype control in TF-1, TF-1 TpoR and TF-1 TpoR CALR^del61 compared to 4D7 conjugated to PE.
as §1

The subject of the next experiment is mutant CALR protein. Nature of the experiment: Western blot detection of mutant CALR by hybridoma clones. The class given is binding, human. The conditions noted are these: cell extracts from TF-1 cells transduced with and without mutant CALR; data not shown. The procedure: as §2
For immunoblotting of total lysates, cells were lysed in NP40 buffer containing 150 mM NaCl, 50 mM Tris pH 7.6, 1% NP-40, supplemented with protease inhibitors (Complete, Roche) and phosphatase inhibitor cocktails, and boiled for 5 minutes after addition of sample buffer (60 mM Tris pH 6.8, 5% glycerol, 1% SDS, 2% β-mercaptoethanol, 0.02% bromophenol blue) before SDS gel electrophoresis followed by Western blotting (Tvorogov et al, 2010). Primary antibodies against pERK (#9101), pSTAT5 (#9359), ERK (#4695), Actin (#4970), Caspase 3 (#14220), wildtype CALR (#12238) were purchased from Cell Signalling. Primary antibodies against pSTATI (#612233), pSTAT3 (#612357), STATI (#610186), STAT3 (#610190), STAT5 (#610192) and Anti-phosphotyrosine 4G10 (#610012) were purchased from BD Biosciences. Mutant CALR monoclonal antibody CAL2 was purchased from Dianova (Hamburg, Germany). Immunopreciptation of TpoR was performed in standard NP40 lysis buffer with additional 50 mM iodoacetamide to avoid any de novo disulfide bond formation post lysis. To reduce IgG background during immunoprecipitation anti-FLAG conjugated to magnetic beads (Sigma, #M8823) were used. For this same reason, anti-FLAG-HRP conjugated antibodies (Sigma, #A8592) were used in western blotting.

Turning to `N#CC[C@H](C1CCCC1)n1cc(-c2ncnc3[nH]ccc23)cn1` [ruxolitinib], in experiment [1] (50 nM, P=0.008), the inhibition at 0.05 µM was greater than 30%. For the same molecule, in experiment [1] (100 nM, P=0.07), the inhibition at 0.1 µM was greater than 30%.
As to B1, the binding result in experiment [2] is “no binding”.
B2: the binding result in experiment [3] was “binds”; in experiment [6], “no binding”. The “proliferation of cytokine-independent TF1 TpoR/mutCALR cells” value in experiment [4] was “inhibit proliferation”. In addition, the “binding to peptide by ELISA” value in experiment [5] is on record as “positive binding”. Besides, the “detecting mutant but not wild type CALR protein by Western blotting” value with mutant CALR protein is given as “superior activity”.

As usually defined, the inhibition is the relative decrease from the control value, in per cent.
